Test results taken from article PMC9599254, “Human Milk Oligosaccharide Utilization in Intestinal Bifidobacteria Is Governed by Global Transcriptional Regulator NagR” (mSystems, 2022).

Columns and labels:
[1] = test system: NagR (Bifidobacterium longum subsp. infantis ATCC 15697 (= JCM 1222)); experiment: EMSA; conditions: no robust shift even at >500 nM NagR; 10 mM Tris-HCl pH 7.5, 50 mM KCl, 5 mM MgCl2, 2.25 mM DTT, 0.125% Tween 20, 2.5% glycerol; 1 nM probe, 0-2000 nM NagR, 60 min, room temperature; 6% gel, 0.5x …
[2] = target: T1, NagR (Bifidobacterium longum, UniProt A0ACD7UQ49); experiment: EMSA, disruption of NagR-DNA complex; type: binding; conditions: 25 nM NagR, 1 nM IRD700-labelled hmoA operator probe; pH 7.5, 50 mM KCl, 5 mM MgCl2, room temperature; effector releasing DNA
T1 construct: gene BLIJ_0896; full-length as described, N-terminal His tag, codon-optimized synthetic gene in in-house pET-49b(+), expressed in E. coli BL21(DE3), Ni-NTA purified; tag removal not mentioned
T1 sequence (A0ACD7UQ49 36-409 limits assumed): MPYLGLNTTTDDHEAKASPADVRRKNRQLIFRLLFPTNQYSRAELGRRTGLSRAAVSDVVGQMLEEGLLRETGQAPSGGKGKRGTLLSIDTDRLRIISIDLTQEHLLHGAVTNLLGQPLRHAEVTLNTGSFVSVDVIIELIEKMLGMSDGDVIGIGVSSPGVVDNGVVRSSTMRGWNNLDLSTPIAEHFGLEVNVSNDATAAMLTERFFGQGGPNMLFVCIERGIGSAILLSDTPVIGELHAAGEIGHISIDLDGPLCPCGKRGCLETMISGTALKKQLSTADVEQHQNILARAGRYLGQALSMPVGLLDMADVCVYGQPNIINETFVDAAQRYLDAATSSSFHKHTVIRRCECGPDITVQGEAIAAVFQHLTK

Molecule | K half [1] [nM] | EC50 [2] [µM]
GGGCCTGATGCAAATATGTTAAGGCTGTTGACAGTGCTGGCTCCCGTAC (double strand) [hmoA6 probe] | > 500 | –
ATTTCGTCGTTGAAATTGTTATGAAACTTCACCAATAAATTCCAGTGTA (double strand) [nagB_II probe] | > 500 | –
CC(=O)N[C@H]1C(O)O[C@H](CO)[C@@H](O)[C@@H]1O (stereo partly shown) [GlcNAc] | – | 330 ± 50
CC(=O)N[C@H]1[C@@H](OP(=O)(O)O)O[C@H](CO)[C@@H](O)[C@@H]1O [GlcNAc-1P] | – | 490 ± 60
